Results taken from patent EP4335870A1 (NantCell, Inc., dated 2024).
Where a chain is given by its changes, count along the chain named.

B1: N-612-014 (antibody, V domains shown)
VH: EVQLVESGGGLVQPGGSLRLSCAASGFTFSSYAMTWVRQAPGKGLEWVSYISGSGGGTYYADSVKGRFTISRDNSKNTLYLQMNSLRAEDTAVYYCARDRWASGWLAFDVWGQGTLVTVSS
VL: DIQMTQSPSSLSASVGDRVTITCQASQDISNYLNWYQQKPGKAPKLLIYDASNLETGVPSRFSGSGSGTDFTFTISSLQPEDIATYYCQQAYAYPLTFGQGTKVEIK
B2: N-612-017 (antibody, V domains shown)
VH: EVQLVESGGGLVQPGGSLRLSCAASGFTFSSYAMHWVRQAPGKGLEWVSAIWGSGSNTYYADSVKGRFTISRDNSKNTLYLQMNSLRAEDTAVYYCARGRDLAAFTKTAFDVWGQGTLVTVSS
VL: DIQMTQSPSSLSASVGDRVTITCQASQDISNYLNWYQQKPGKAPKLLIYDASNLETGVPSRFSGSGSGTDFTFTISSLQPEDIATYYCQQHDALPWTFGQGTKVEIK
B3: N-612-017-5B05 SV (antibody, V domains shown)
VH: B2 VH with A33V, R72V, R100E, D101E
VL: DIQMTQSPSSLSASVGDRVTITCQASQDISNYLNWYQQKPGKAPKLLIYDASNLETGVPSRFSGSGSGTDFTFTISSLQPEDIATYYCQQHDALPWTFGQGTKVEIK
B4: N-612-007 (antibody, V domains shown)
VH: EVQLVESGGGLVQPGGSLRLSCAASGFTFSNYAMHWVRQAPGKGLEWVSAISGNGGSTGYADSVKGRFTISRDNSKNTLYLQMNSLRAEDTAVYYCARDRWYVKNAFDVWGQGTLVTVSS
VL: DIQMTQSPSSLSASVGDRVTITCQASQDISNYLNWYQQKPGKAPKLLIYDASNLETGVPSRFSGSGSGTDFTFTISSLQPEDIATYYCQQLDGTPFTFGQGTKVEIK
B5: N-612-004 (antibody, V domains shown)
VH: EVQLVESGGGLVQPGGSLRLSCAASGFTFSSYYMHWVRQAPGKGLEWVSAISGSGGYTYYADSVKGRFTISRDNSKNTLYLQMNSLRAEDTAVYYCARDRDHAYDWGFDVWGQGTLVTVSS
VL: DIQMTQSPSSLSASVGDRVTITCQASQDISNYLNWYQQKPGKAPKLLIYDASNLETGVPSRFSGSGSGTDFTFTISSLQPEDIATYYCQQWADWPLTFGQGTKVEIK
B6: N-612-056 (antibody, V domains shown)
VH: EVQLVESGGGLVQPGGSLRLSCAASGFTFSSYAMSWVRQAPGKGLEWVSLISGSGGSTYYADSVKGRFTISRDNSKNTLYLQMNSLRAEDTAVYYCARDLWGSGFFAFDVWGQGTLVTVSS
VL: B5 VL with W91D, D93G, W94T
B7: N-612-056-21 (antibody, V domains shown)
VH: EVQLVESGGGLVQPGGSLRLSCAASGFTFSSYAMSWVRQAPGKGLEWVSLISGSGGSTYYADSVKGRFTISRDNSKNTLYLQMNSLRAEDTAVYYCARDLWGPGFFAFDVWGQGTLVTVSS
VL: B5 VL with W91D, D93G, W94T

How the values were obtained:
[1] = target: SARS-CoV-2 Spike protein on live SARS-CoV-2 (SARS-CoV-2, UniProt P0DTC2 14-1273); test: cell-based or functional assay
[2] = target: SARS-CoV-2 Spike receptor binding domain (RBD), wildtype (SARS-CoV-2, UniProt P0DTC2 319-541)

Binder	live SARS-CoV-2 neutralization IC50 [1]	Kd [2]
B1	0.00791 µg/mL	
B2	0.0756 µg/mL	5.29 nM
B3		6.62 nM
B4	0.0452 µg/mL	
B5	0.194 µg/mL	
B6	0.855 µg/mL	2.98 nM
B7		0.41 nM
